In US20260174875A1 (Novo Nordisk A/S, priority 2023, published 2026):
Numbered stars: 1 amine (or outer) side, 2 acyl side, 3 side chain; on linkers, the order of the positions; unused ones are H or OH. Square brackets hold non-standard residues; d marks the D form. Side chains are listed from the residue outwards. * marks the point of attachment. C20 diacid = O=C(O)CCCCCCCCCCCCCCCCCCC(=O)*; C18 diacid = O=C(O)CCCCCCCCCCCCCCCCC(=O)*; γGlu = O=C(O)[C@H](CCC(=O)[*:2])N[*:1]; AEEA = NCCOCCOCC(=O)O; Aib = CC(C)(N)C(=O)O

T1: human GIP receptor (human, UniProt P48546 22-466)
T1 sequence (looked up): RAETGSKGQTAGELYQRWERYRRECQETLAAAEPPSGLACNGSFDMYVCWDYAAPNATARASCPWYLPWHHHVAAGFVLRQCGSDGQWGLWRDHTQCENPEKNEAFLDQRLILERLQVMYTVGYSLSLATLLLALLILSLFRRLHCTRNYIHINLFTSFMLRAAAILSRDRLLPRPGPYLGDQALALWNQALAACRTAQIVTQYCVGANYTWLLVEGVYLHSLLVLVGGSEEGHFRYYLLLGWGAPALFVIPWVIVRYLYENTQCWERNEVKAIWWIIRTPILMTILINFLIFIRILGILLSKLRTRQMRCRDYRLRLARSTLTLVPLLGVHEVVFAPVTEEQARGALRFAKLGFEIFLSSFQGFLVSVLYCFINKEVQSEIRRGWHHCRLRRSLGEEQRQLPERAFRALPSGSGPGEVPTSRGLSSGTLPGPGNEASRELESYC

T2: human amylin-3(a) receptor (human, UniProt P30988 25-474; O60896 24-148)
T2 sequence (looked up) 1: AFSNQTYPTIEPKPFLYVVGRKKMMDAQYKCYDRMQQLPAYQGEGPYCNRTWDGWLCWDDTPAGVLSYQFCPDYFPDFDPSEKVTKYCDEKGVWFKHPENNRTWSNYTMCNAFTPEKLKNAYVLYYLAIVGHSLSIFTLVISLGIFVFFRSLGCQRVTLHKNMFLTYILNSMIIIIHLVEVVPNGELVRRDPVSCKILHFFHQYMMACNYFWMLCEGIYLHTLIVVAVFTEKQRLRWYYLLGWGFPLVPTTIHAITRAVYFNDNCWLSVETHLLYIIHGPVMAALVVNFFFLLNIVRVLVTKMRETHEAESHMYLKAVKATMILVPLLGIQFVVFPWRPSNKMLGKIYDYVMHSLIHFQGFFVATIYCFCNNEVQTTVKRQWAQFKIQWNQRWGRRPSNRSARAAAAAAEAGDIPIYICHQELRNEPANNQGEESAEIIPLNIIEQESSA
T2 sequence (looked up) 2: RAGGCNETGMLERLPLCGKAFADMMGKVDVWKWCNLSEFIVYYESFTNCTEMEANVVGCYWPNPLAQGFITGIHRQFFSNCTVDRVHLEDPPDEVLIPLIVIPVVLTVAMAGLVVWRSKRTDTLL

B1: Compound 64 (peptide)
peptide: H[Aib]HGTFTSDYSILLEEQAAREFIEWLLAGGPSK([AEEA-AEEA-γGlu-C18 diacid])GEASQLSTAALGRLSAELHQLATLPRTETGSGSP-NH2
B2: Compound 65 (peptide)
peptide: H[Aib]HGTFTSDYSILLEEQAAREFIEWLLAGGPSK([AEEA-AEEA-γGlu-C18 diacid])GEASQLSTAALGRLSAELHGLATLPRTETGSGSP-NH2
B3: Compound 70 (peptide)
peptide: H[Aib]HGTFTSDYSILLEEQAAREFIEWLLAGGPSRGAPPPSGGGEASELSTAALGRLSAELHK([AEEA-AEEA-γGlu-C18 diacid])LATLPRTETGSGSP-NH2
B4: Compound 75 (peptide)
peptide: H[Aib]HGTFTSDYSILLEEQAAREFIEWLLAGGPSGGEASHLSTAQTQRLSAELHK([AEEA-AEEA-γGlu-C18 diacid])LATLPRTETGSGSP-NH2
B5: Compound 63 (peptide)
peptide: H[Aib]HGTFTSDYSILLEEQAAREFIEWLLAGGPSK([AEEA-AEEA-γGlu-C18 diacid])GEASQLSTAALGRLSAELHTLATLPRTETGSGSP-NH2
B6: Compound 74 (peptide)
peptide: Y[Aib]EGTFTSDYSILLEEQAAREFIEWLLAGGPSGGEASHLSTAQTQRLSAELHK([AEEA-AEEA-γGlu-C18 diacid])LATLPRTETGSGSP-NH2
B7: Compound 76 (peptide)
peptide: Y[Aib]EGTFTSDYSILLEEQAAREFIEWLLAGGPSSGAGQAPGQAPGASHLSTAQTQRLSAELHRLATLPK([AEEA-AEEA-γGlu-C20 diacid])TETGSGSP-NH2
B8: Compound 68 (peptide)
peptide: Y[Aib]EGTFTSDYSILLEEQAAREFIEWLLAGGPSRGEASHLSTAQTQRLSAELHK([AEEA-AEEA-γGlu-C18 diacid])LATLPRTETGSGSP-NH2
B9: Compound 72 (peptide)
peptide: Y[Aib]EGTFTSDYSILLEEQAAREFIEWLLAGGPSRGAPPPSGGGEASHLSTQTQGRLSAELHK([AEEA-AEEA-γGlu-C18 diacid])LATLPRTETGSGSP-NH2
B10: Compound 67 (peptide)
peptide: Y[Aib]EGTFTSDYSILLEEQAAREFIEWLLAGGPSRGEASELSTAALGRLSAELHK([AEEA-AEEA-γGlu-C18 diacid])LATLPRTETGSGSP-NH2
B11: Compound 69 (peptide)
peptide: H[Aib]HGTFTSDYSILLEEQAAREFIEWLLAGGPSRGEASHLSTAQTQRLSAELHK([AEEA-AEEA-γGlu-C18 diacid])LATLPRTETGSGSP-NH2
B12: Compound 73 (peptide)
peptide: H[Aib]HGTFTSDYSILLEEQAAREFIEWLLAGGPSK([AEEA-AEEA-γGlu-C18 diacid])GEASQLSTAALGRLSAELHRLATLPRTETGSGSP-NH2
B13: Compound 71 (peptide)
peptide: H[Aib]HGTFTSDYSILLEEQAAREFIEWLLAGGPSRGAPPPSGGGEASHLSTQTQGRLSAELHK([AEEA-AEEA-γGlu-C18 diacid])LATLPRTETGSGSP-NH2

These binders were tested against T1, human GIP receptor (assay: cell-based or functional assay).

Binder | hGIPR Potency, no HSA, EC50 [pM]
B1 | 2.03 pM
B2 | 1.89 pM
B3 | 5.89 pM
B4 | 2.65 pM
B5 | 1.6 pM
B6 | 2.51 pM
B7 | 2.82 pM
B8 | 1.83 pM
B9 | 2.12 pM
B10 | 4.28 pM
B11 | 1.9 pM
B12 | 4.98 pM
B13 | 2.77 pM

The binders below were run against T3, human GLP-1 receptor (human, UniProt P43220 24-463) (assay: cell-based or functional assay).

Binder | hGLP-1R Potency, no HSA, EC50 [pM]
B1 | 3.71 pM
B2 | 4.86 pM
B3 | 3.48 pM
B4 | 3.66 pM
B5 | 4.77 pM
B6 | 29.8 pM
B7 | 19.9 pM
B8 | 12.1 pM
B9 | 13.1 pM
B10 | 15.4 pM
B11 | 3.45 pM
B12 | 4.55 pM
B13 | 3.34 pM

The binders below were run against T2, human amylin-3(a) receptor (assay: cell-based or functional assay).

Binder | hAMYR3 Potency, no HSA, EC50 [pM]
B1 | 1.91 pM
B2 | 2.84 pM
B3 | 4.53 pM
B4 | 2.49 pM
B5 | 2.86 pM
B6 | 2.73 pM
B7 | 3.11 pM
B8 | 2.57 pM
B9 | 6.57 pM
B10 | 3.66 pM
B11 | 3.43 pM
B12 | 1.99 pM
B13 | 8.66 pM

Target: T1, human GIP receptor
Assay: cell-based or functional assay
Remark: another data set of the same source

Binder | hGIPR Potency, 1% HSA, EC50 [pM]
B1 | 100 pM
B2 | 118 pM
B3 | 19.1 pM
B4 | 11.9 pM
B5 | 63.2 pM
B6 | 18.7 pM
B7 | 11.1 pM
B8 | 11.9 pM
B9 | 9.79 pM
B10 | 37 pM
B11 | 8.05 pM
B12 | 96.5 pM
B13 | 9.28 pM

Target: T3, human GLP-1 receptor
Assay: cell-based or functional assay
Remark: another data set of the same source

Binder | hGLP-1R Potency, 1% HSA, EC50 [pM]
B1 | 67.8 pM
B2 | 100 pM
B3 | 18.4 pM
B4 | 25.2 pM
B5 | 101 pM
B6 | 141 pM
B7 | 63.6 pM
B8 | 51.9 pM
B9 | 41.7 pM
B10 | 105 pM
B11 | 20.4 pM
B12 | 54.1 pM
B13 | 18.4 pM

Target: T2, human amylin-3(a) receptor
Assay: cell-based or functional assay
Remark: another data set of the same source

Binder | hAMYR3 Potency, 1% HSA, EC50 [pM]
B1 | 109 pM
B2 | 127 pM
B3 | 59.4 pM
B4 | 110 pM
B5 | 70.2 pM
B6 | 134 pM
B7 | 430 pM
B8 | 230 pM
B9 | 589 pM
B10 | 190 pM
B11 | 78.9 pM
B12 | 61.5 pM
B13 | 274 pM
